Primed or numbered codes have the meaning given here. No end group written: not given here. Biotin′ = not defined here

Results on three molecules are retold here after patent US20080131882A1.

Experiment in all cases: ELISA, biotinylated peptide on streptavidin plate
In general terms: In an ELISA, binding on a coated surface is turned into a signal by an enzyme label.

The target of assay [1] is RhD305.181E06.
Assay [2] concerns the target RhD202.158E07.
Assay [3] has as its target RhD162.119G12.

CTTLLHFLC (coupled to Biotin at the C-terminus) [PEP305]: in assay [1], the signal-to-noise ratio was 10. On to CAPRNPYEC-{Biotin′} (cysteine pairing not given here) [PEP202], for which, in assay [2], the signal-to-noise ratio is 10. As for CMGYGPRMC-{Biotin′} (cysteine pairing not given here) [PEP162], in assay [3], the signal-to-noise ratio came to 10.
